Experimental data published in paper PMC4498696.

Tests used:
[1] = target: purified prefusion F N426D (respiratory syncytial virus, strain A2 | not stated) (UniProt P03420); experiment: ELISA
[2] = target: full-length prefusion F N426D (RSV F residues 1-574 with the DS-Cav1 stabilizing mutations and N426D (respiratory syncytial virus, strain not stated) (UniProt P03420)); experiment: flow cytometry on cells
[3] = target: biotinylated prefusion RSV F DS-Cav1, subtype B (respiratory syncytial virus, subtype B | not stated) (UniProt P13843)
[4] = target: biotinylated prefusion RSV F DS-Cav1, subtype B (respiratory syncytial virus, subtype B | not stated) (UniProt P13843); experiment: Luminex bead binding assay; biotinylated RSV F proteins coupled to avidin-coated MagPlex beads (1 μg per 50,000 beads); IgG in 10-fold serial dilutions 1 μM to 0.1 pM; PE-conjugated anti-human IgG Fc; PBS, 0.1% BSA, 0.05% Tween 20
AM14 IgG (human) = experiment: ELISA
AM14 IgG (human), sequence (heavy, as listed by the source, chain 1 of 2): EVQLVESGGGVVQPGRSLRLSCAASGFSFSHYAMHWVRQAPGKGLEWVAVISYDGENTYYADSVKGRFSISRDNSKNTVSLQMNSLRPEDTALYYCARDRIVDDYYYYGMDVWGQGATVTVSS
AM14 IgG (human), sequence (light, as listed by the source, chain 2 of 2): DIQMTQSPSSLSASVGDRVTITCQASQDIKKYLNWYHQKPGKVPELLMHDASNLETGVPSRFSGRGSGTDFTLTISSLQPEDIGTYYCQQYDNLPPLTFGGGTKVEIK

Row | Substance | fold reduction of binding against wild-type prefusion F [1] [fold] | fold reduction of binding against wild-type prefusion F [2] [fold] | IC50 of neutralisation of RSV subtype B strain 9320 (F of the virus), microneutralization on HEp-2 cells [3] [µg/mL] | IC50 of neutralisation of RSV subtype B strain 18537 (F of the virus), microneutralization on HEp-2 cells [3] [µg/mL] | EC50 [4] [nM] | fold decrease in other (AM14 IgG (human)) [fold]
1 | AM14 IgG (antibody) | 100 | 4 | 0.0046 | 0.0308 | 0.18 | –
2 | cleaved monomeric RSV F (residues 1-524, without the foldon trimerization motif) (from UniProt P03420 26-109; P03420 26-524) (domain or fragment) | – | – | – | – | – | 100
